Assay results published in patent publication US20220298235A1 (AKESO BIOPHARMA, published 2022).
Like-named read-outs stand apart in the source and are kept apart here.

T1: human IL-23 (IL-23-His-Biotin) (human, UniProt Q9NPF7 20-189; P29460 23-328, biotin label, site not stated)
T1 construct: Akesobio lot 20161209; His-tagged and biotinylated
T1 sequence (looked up) 1: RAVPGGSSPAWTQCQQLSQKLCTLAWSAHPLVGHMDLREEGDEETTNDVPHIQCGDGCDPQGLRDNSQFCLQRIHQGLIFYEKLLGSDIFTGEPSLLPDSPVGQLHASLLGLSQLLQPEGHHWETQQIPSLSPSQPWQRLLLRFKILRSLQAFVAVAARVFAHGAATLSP
T1 sequence (looked up) 2: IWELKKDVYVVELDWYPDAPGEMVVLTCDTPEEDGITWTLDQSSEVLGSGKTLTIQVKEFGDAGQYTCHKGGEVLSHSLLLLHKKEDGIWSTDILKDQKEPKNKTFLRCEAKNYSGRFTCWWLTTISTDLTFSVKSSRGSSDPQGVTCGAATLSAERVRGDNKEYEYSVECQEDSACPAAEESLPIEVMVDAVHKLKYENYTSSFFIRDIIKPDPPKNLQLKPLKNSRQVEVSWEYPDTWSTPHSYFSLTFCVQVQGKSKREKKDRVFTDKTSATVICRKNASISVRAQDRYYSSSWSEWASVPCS

T2: Human IL12 (His Tag) (human, UniProt P29459 23-219; P29460 23-328)
T2 construct: Bought His-tagged heterodimer
T2 sequence (looked up) 1: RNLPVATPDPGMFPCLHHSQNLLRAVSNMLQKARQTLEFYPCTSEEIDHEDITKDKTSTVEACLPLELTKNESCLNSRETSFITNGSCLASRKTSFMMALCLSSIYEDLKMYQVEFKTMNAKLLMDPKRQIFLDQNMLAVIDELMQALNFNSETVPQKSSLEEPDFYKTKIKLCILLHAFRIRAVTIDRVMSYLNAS
T2 sequence (looked up) 2: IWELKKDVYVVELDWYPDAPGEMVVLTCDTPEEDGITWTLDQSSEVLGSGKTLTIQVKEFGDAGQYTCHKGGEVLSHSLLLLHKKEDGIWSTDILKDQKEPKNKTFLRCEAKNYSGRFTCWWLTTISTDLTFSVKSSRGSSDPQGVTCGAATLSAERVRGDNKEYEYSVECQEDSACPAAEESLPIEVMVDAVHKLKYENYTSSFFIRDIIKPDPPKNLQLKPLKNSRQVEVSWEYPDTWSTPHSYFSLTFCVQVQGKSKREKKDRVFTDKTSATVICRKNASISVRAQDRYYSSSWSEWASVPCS

T3: human p40-His (human, UniProt P29460 23-328)
T3 construct: Made by Akeso Biopharma; construct limits and tag not described; also called human IL-12/IL-23 p40 protein domain; human IL-12/IL-23 p40; not shown: His tag
T3 sequence (looked up): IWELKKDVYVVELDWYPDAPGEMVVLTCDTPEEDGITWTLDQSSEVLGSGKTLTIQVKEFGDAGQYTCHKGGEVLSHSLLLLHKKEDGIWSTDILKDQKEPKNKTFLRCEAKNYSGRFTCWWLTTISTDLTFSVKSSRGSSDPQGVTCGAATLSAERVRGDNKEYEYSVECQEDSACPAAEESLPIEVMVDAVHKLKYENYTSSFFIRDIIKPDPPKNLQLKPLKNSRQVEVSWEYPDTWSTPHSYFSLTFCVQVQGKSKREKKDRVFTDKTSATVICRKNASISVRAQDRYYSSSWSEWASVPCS


Assays:
[1] = molecular target: T1, human IL-23 (IL-23-His-Biotin); assay: FACS competition, IL-23-His-Biotin 2 µg/mL on 293T-IL-12Rβ1&IL-23R cells; antibody 30 µg/mL
Method: (§1) 200 μL of 1% PBSA was added into each sample, and the mixture was centrifuged at 700×g for 5 min to discard the supernatant. According to experiment design, correspondingly diluted antibody (highest final concentration of 30 μg/mL, 3-fold dilution, 8 concentrations in total) and human IL-23 (IL-23-His-Biotin, Akesobio, 20161209) (final concentration of 2 μg/mL) were mixed at a ratio of 1:1, and a blank control was set. The mixture of antibody and human IL23 was incubated on ice for 30 min and then added to the cell precipitate at 100 μL/sample. The resulting mixture was well mixed and incubated on ice for 60 min. 200 μL of 1% PBSA was added, and the mixture was centrifuged at 700×g for 5 min to discard the supernatant, and then washed twice. FITC Steptavidin (Biolegend, Cat. No.: 405202) was diluted at a ratio of 1:500 and added to each tube at 100 μL. The mixture was well mixed and incubated on ice for 40 min in the absence of light. 200 μL of 1% PBSA was added, and the mixture was centrifuged at 700×g for 5 min to discard the supernatant, and then washed twice. 1% PBSA was added at 200 μL/tube, and the cells were resuspended and transferred to a flow cytometry tube for testing.

Human IL12 (His Tag) [2] = molecular target: T2, Human IL12 (His Tag); assay: FACS competition, IL-12-His 20 nM on 293T-IL-12Rβ1&IL-23R cells; antibody 3.33 µg/mL
Method: (§2) 200 μL of 1% PBSA was added into each sample, and the mixture was centrifuged at 700×g for 5 min to discard the supernatant. According to experiment design, correspondingly diluted antibody (highest final concentration of 30 μg/mL, 3-fold dilution, 8 concentrations in total) and human IL-12 (Sino Biological, Cat. No.: CT-050-H08H-20) (final concentration of 20 nM) were mixed at a ratio of 1:1, and a blank control was set. The mixture of antibody and human IL12 was incubated on ice for 30 min and then added to the cell precipitate at 100 μL/sample. The resulting mixture was well mixed and incubated on ice for 60 min 200 μL of 1% PBSA was added, and the mixture was centrifuged at 700×g for 5 min to discard the supernatant, and then washed twice. Alexa Fluor® 488 anti-His tag antibody (Biolegend, Cat. No.: 652509) was diluted at a ratio of 1:400 and added to each tube at 100 μL. The mixture was well mixed and incubated on ice for 40 min in the absence of light. 200 μL of 1% PBSA was added, and the mixture was centrifuged at 700×g for 5 min to discard the supernatant, and then washed twice. 1% PBSA was added at 200 μL/tube, and the cells were resuspended and transferred to a flow cytometry tube for testing.

[3] = molecular target: T1, human IL-23 (IL-23-His-Biotin); assay: FACS competition, IL-23-His-Biotin 2 µg/mL on 293T-IL-12Rβ1&IL-23R cells; antibody 0.04 µg/mL
Method: as §1

Human IL12 (His Tag) [4] = molecular target: T2, Human IL12 (His Tag); assay: FACS competition, IL-12-His 20 nM on 293T-IL-12Rβ1&IL-23R cells
Method: as §2

human p40-His [5] = molecular target: T3, human p40-His; assay: indirect ELISA, p40-His coat 0.125 µg/mL
Method: (§3) A microplate was coated with human p40-His (Akeso Biopharma, Inc.; gene of p40: GeneBank NM002187). After incubation at 4° C. for no less than 12 h, the plate was washed with PBST, patted dry and blocked with a solution of 1% BSA in PBS. After blocking was completed, the plate was washed with PBST and patted dry. The antibody diluted with PBST solution in gradient was added into the wells of the plate, and the antibody dilution gradient is detailed in Table 1. The plate containing the test antibody was incubated at 37° C. for 30 min and then washed with PBST and patted dry. […] TMB (Neogen, 308177) was added for color developing for 5 min in the absence of light, and then stop solution was added to terminate the chromogenic reaction. Then the plate was put into a plate reader immediately, and the OD value of each well in the plate was read at 450 nm. The data were analyzed by SoftMax Pro 6.2.1.
(§4) The binding EC₅₀ of antibody was calculated by curve fitting using antibody concentration as the abscissa and absorbance value as the ordinate, and the results are shown in Table 2 below.

human p40-His [6] = molecular target: T3, human p40-His; assay: indirect ELISA, p40-His coat 0.125 µg/mL; remark: listed apart in the source
Method: as §3
as §4, with “The detection results of the binding of antibodies H5L11, H5L12, H5L14 and Ab123FR1 to the antigen human p40-His are shown in FIG. 3. The” for “The”, “3” for “2”

| Binder | MFI [1] | MFI (Human IL12 (His Tag) [2]) | MFI [3] | EC50 (Human IL12 (His Tag) [4]) | EC50 (human p40-His [5]) | EC50 (human p40-His [6]) |
| --- | --- | --- | --- | --- | --- | --- |
| H5L10 (antibody, human IgG1, kappa, V domains shown, human IgG1 / kappa constant regions; also called humanized antibody H5L10) VH: EVQLVQSGAEVKKPGESLKISCQSSGYSFTTYWIGWVRQMPGQGLEWIGIMSPVDSDIRYNPMFRGQVTMSVDKSSSTAYLQWSSLKASDTAMYYCARRRPGQGYFDFWGQGTMVTVSS VL: EIVLTQSPATLSASPGERATISCRASQSVGSWLAWYQQKPGQAPRSLIYAASNLQSGIPARFSGSGSGTDFTLTISSLEPEDFAVYYCQQYNIYPYTFGQGTRLEIKR | 11.9 MFI | 40.2 MFI | 230 MFI | 0.331 µg/mL | 0.057 nM |  |
| H5L9 (antibody, human IgG1, kappa, V domains shown, human IgG1 (P01857) / kappa (P01834) constant regions; also called humanized antibody H5L9) VH: EVQLVQSGAEVKKPGESLKISCQSSGYSFTTYWIGWVRQMPGQGLEWIGIMSPVDSDIRYNPMFRGQVTMSVDKSSSTAYLQWSSLKASDTAMYYCARRRPGQGYFDFWGQGTMVTVSS VL: DIQMTQSPSSLSASVGDRVTITCKASQNVGSWLAWYQQKPGKAPKSLIYSASSRQSGVPSRFSGSGSGTDFTLTISSLQPEDFATYYCQQYDIYPFTFGQGTKLEIKR | 104 MFI | 146 MFI | 221 MFI |  |  |  |
| H5L11 (antibody, human IgG1, kappa, V domains shown, human IgG1 / kappa constant regions; also called humanized antibody H5L11) VH: EVQLVQSGAEVKKPGESLKISCQSSGYSFTTYWIGWVRQMPGQGLEWIGIMSPVDSDIRYNPMFRGQVTMSVDKSSSTAYLQWSSLKASDTAMYYCARRRPGQGYFDFWGQGTMVTVSS VL: EIVLTQSPATLSASPGERATISCRASQSVSSWLAWYQQKPGQAPRSLIYSASNLQSGIPARFSGSGSGTDFTLTISSLEPEDFAVYYCQQYNIYPYTFGQGTRLEIKR | 12.9 MFI | 42.2 MFI | 224 MFI | 0.414 µg/mL |  | 0.082 nM |

Next, values leading:

| MFI [1] | MFI (Human IL12 (His Tag) [2]) | MFI [3] | EC50 (Human IL12 (His Tag) [4]) | EC50 (human p40-His [5]) | EC50 (human p40-His [6]) | Binder |
| --- | --- | --- | --- | --- | --- | --- |
| 9.64 MFI | 29.7 MFI | 216 MFI | 0.377 µg/mL |  |  | ustekinumab (antibody, V domains shown) VH: EVQLVQSGAEVKKPGESLKISCKGSGYSFTTYWLGWVRQMPGKGLDWIGIMSPVDSDIRYSPSFQGQVTMSVDKSITTAYLQWNSLKASDTAMYYCARRRPGQGYFDFWGQGTLVTVSS VL: DIQMTQSPSSLSASVGDRVTITCRASQGISSWLAWYQQKPEKAPKSLIYAASSLQSGVPSRFSGSGSGTDFTLTISSLQPEDFATYYCQQYNIYPYTFGQGTKLEIK |
| 14.1 MFI | 51.9 MFI | 216 MFI | 0.532 µg/mL |  | 0.107 nM | H5L14 (antibody, human IgG1, kappa, V domains shown, human IgG1 / kappa constant regions; also called humanized antibody H5L14) VH: EVQLVQSGAEVKKPGESLKISCQSSGYSFTTYWIGWVRQMPGQGLEWIGIMSPVDSDIRYNPMFRGQVTMSVDKSSSTAYLQWSSLKASDTAMYYCARRRPGQGYFDFWGQGTMVTVSS VL: EIVLTQSPATLSASPGERATISCRASQSVSSWLAWYQQKPGQAPRSLIYAASNLQSGIPARFSGSGSGTDFTLTISSLEPEDFAVYYCQQYNIYPFTFGQGTRLEIKR |
| 12.3 MFI | 31.8 MFI | 234 MFI | 0.317 µg/mL |  | 0.082 nM | H5L12 (antibody, human IgG1, kappa, V domains shown, human IgG1 / kappa constant regions; also called humanized antibody H5L12) VH: EVQLVQSGAEVKKPGESLKISCQSSGYSFTTYWIGWVRQMPGQGLEWIGIMSPVDSDIRYNPMFRGQVTMSVDKSSSTAYLQWSSLKASDTAMYYCARRRPGQGYFDFWGQGTMVTVSS VL: EIVLTQSPATLSASPGERATISCRASQSVSSWLAWYQQKPGQAPRSLIYAASNRQSGIPARFSGSGSGTDFTLTISSLEPEDFAVYYCQQYNIYPYTFGQGTRLEIKR |
